In paper PMC2115722 one finds stoichiometry N (profilin per actin) data, which are given here for 1 substance.

The target of this assay is Acanthamoeba actin (Acanthamoeba castellanii). The assay is described as follows: cross-linking.

Substance “Acanthamoeba profilin I (natural protein)” registered a stoichiometry N (profilin per actin) of 1.
